# Test results taken from publication doi:10.1101/2021.02.17.431743 (bioRxiv, 2021).
# B1: HENV-117 human monoclonal antibody (antibody, V domains shown)
# VH: QVQLQQWGAGLLKPSETLSLTCDLSGGSFTNYYWTWIRHLPGKGLEWLGEINHSGRTNYSPSLKSRVTISVDTSKNQFSLRLSSVTAADTAVYYCARDIRKLAPKPHSYDLYYGMDVWGQGTTVTVSS
# VL: EIVLTQSPGTLSLSPGERATLSCRASQSVGSNYLTWYQQKPGQPPRLLIYGASNRAAGIPDRFSGSGSGTDFTLTISRLEPEDFAVYYCQQYETSSRTFGQGTKVDIR
# B2: HENV-103 human monoclonal antibody (antibody, V domains shown)
# VH: QVQLQGSGPGLVKPSQTLSLTCSVSGGSVSRSGYYWGWIRQHPGKGLECIGYIYYSGITYYNPSLSGRLTISVDTSKNQFSLELSSVTAADTAVYYCARVWLGGGVFDFWGQGSLVTVSS
# VL: EIVMTQSPATLSVSPGEGATLSCRASQSVSSNLAWYQQKPGQAPRLLIYDASTRATGIPARFSGSGSGTEFTLTISSLQSEDFAVYYCQQYNDWRTFGRGTKVEMR
# Biological target: full-length HeV-RBP (Hendra virus receptor binding protein); head, stalk, transmembrane, and cytoplasmic … (Hendra virus, UniProt O89343)
# Sequence (O89343 whole entry): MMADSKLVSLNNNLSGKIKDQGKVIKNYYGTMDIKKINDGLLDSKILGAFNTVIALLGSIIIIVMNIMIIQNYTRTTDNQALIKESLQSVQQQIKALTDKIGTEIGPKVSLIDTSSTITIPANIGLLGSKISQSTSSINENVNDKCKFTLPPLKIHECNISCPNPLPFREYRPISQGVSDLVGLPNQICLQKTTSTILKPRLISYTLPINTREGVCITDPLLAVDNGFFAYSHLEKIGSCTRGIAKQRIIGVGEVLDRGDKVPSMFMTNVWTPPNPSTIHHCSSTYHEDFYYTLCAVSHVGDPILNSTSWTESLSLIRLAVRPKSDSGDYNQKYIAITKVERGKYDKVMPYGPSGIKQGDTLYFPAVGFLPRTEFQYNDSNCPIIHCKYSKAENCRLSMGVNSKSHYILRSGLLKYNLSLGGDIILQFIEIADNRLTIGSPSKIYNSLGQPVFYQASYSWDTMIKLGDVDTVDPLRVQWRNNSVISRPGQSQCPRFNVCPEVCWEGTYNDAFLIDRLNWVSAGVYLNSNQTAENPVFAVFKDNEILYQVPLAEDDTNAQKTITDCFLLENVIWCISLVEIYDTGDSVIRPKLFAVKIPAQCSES
# Assay: flow cytometry on cells
row,Binder,binding result
1,B1,binds
2,B2,binds
